This note sets out measurements from the nanobody polyreactivity screen of Harvey et al. (2022).

The nature of the series: yeast display, Sf9 membrane polyspecificity reagent, FACS + sequencing; frameworks hold sequencing errors. Put shortly:
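Synthetic nanobody libraries on Saccharomyces cerevisiae BJ5465 were galactose-induced for 36–48 hours, stained 1 hour at 4 °C with 10% biotinylated, detergent-solubilized Sf9 membrane reagent and enriched on streptavidin microbeads. FACS then separated cells into low and high (top ~1%) gates by anti-HA (expression) and streptavidin (reagent binding) fluorescence. Genes were colony-PCR amplified, MiSeq 2 × 250 sequenced and CDR-length filtered. A clone's polyreactivity label is that of its gate of origin.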
Consider “QVQLVESGGGLVQAGGSLRLSCAASGFTIWRYAMGWYRQAPWKARELVAAISRGGSTNYADSVKGRFTISRDNAKNTVYLQMNSLKPEDTAVYYCAASVQYRRLKKFYYWGQGTQVTVSS”, for which the “polyreactivity (PSR sort gate)” value is “high polyreactivity”.

With “QVQLVESGGGLVQAGGSLRLSCAASGFTIYANAMGWYRQAPGKERELVAAISSNGGSTYYADSVKGRFTISRDNAKNTVYLQMKSLKPEDTAVYSCADYFGSVLRSTIYDYWGQGTQVTVSS”, the “polyreactivity (PSR sort gate)” value was “low polyreactivity”.

Regarding “QVQLVESGGGLVQAGGSLRLSCAASGFTIYGYAMGWYSQAPGKERELVAAISSSGGRTYYADSVKGRCTISRDNAKNTVYLQMNSLKPEDTAVYYCAAEYRSYRDGYWGQGTQVTVSS”, the “polyreactivity (PSR sort gate)” value is on record as “high polyreactivity”.

As to “QVQLVESGGGLVQAGGSLRLSCAASGFTIYRYAMGWSRQAPGKERELVAAISGGGSRTYYADSVKGRFTISRDNAKNTVYLLMNSLKPEDTAVYYCNADPVKYSYDGYARPRYDYWGQGTQVTVSS”, the “polyreactivity (PSR sort gate)” value is “low polyreactivity”.

Consider “QVQLVESGGGLVQAGGSLRLSCAASGFTIYRYAMGWYRQAPGKERELVAAITWSGVSTYYADSVKGRFTISRDNAKNTVYLQMNSLKPEDTAVYYCAATTYSSSSSHDYWGQGTQVTVSS”, for which the “polyreactivity (PSR sort gate)” value is on record as “low polyreactivity”.

Take “QVQLVESGGGLVQAGGSLRLSCAASGFTIYRYAMGWYRQAPGKERELVASITWSGGSTYYADSVKGRFTISRDNAKNTVYLQMNSLKPEDTAVYYCNALFSWGTGYGSSYGYWGQGTQVTVSS”: the “polyreactivity (PSR sort gate)” value is “high polyreactivity”.

“QVQLVESGGGLVQAGGSLRLSCAASGFTIYYYAMGWYRQAPGKERELVASITSGGSTYYADSVKGRFTISRDNAKNTVYLQMHSLKPEDTAVYDCAKTRLHSKEGDYWGQGTQVTVSS”: the “polyreactivity (PSR sort gate)” value is “low polyreactivity”.

On to “QVQLVESGGGLVQAGGSLRLSCAASGFTIYYYAMGWYRQAPGKERELVASITSGGSTYYADSVKGRFTISRDNAKNTVYLQMNSLKPEDTAVYYCAKTRFHSKEGDYWGQGTQVTVSS”, for which the “polyreactivity (PSR sort gate)” value was “low polyreactivity”.

Consider “QVQLVESGGGLVQAGGSLRLSCAASGFTLAGYDMGWYRQAPGKERELVATISTYADSVKGRFTISRDNAKNTVYLQMNSLKPEDTAVYDCAKKYVWTHNYWGQGTQVTVSS”, for which the “polyreactivity (PSR sort gate)” value is “low polyreactivity”.

For “QVQLVESGGGLVQAGGSLRLSCAASGFTLARNTMGWYRQAPGKQRELVAAISGGGSTNYADSVKGRFTISRDNAKNTVYLLMYSLKPEHTAVYYCNADSNSDNNDYDYWGQGSQVTVSS”, the “polyreactivity (PSR sort gate)” value is given as “low polyreactivity”.

For “QVQLVESGGGLVQAGGSLRLSCAASGFTLDNYAIGWYRPAPGKERELVAASSWSGGRTYYADSVKGRFTISRDNAKNTVYLQMNSLKPEDTAVYYCYASPYGRKYGILADGDYWGQGTQVTVSS”, the “polyreactivity (PSR sort gate)” value is “high polyreactivity”.

Turning to “QVQLVESGGGLVQAGGSLRLSCAASGFTLDYYAMGLYRQAPGKERELVAAITSGSITYYADSVKGRFTISRDNAKNTVYLQMNSLKPEDTAVYYCAAVGLVRYGYWGQGTQVTVSS”, the “polyreactivity (PSR sort gate)” value is listed as “high polyreactivity”.

For “QVQLVESGGGLVQAGGSLRLSCAASGFTLFDYAMGWYRQAPGKERELVAAITTSGGSTYYADSVKGRFTISRDNAKNTVYLQMNSLKPEDTAVYYCAVEYMLTYYYYVSYEYYYWGQGTQVTVSS”, the “polyreactivity (PSR sort gate)” value is “high polyreactivity”.

For “QVQLVESGGGLVQAGGSLRLSCAASGFTLFTYAMGWYRQAPGKERELVAAIRSGGSTYYADSVKGRFTISRDTAKNTVYLQMNSLKPEDTAVYYCNAVYRYASGKYYYWGQGTQVTVSS”, the “polyreactivity (PSR sort gate)” value is recorded as “high polyreactivity”.

With “QVQLVESGGGLVQAGGSLRLSCAASGFTLGFNAMGWYRQAPGKERELVATISSSGGSTHYADSVKGRFTISRDNAKNTVYLQMNSLKPEDTAVYYCARDDSDRIWLEQSGYWGQGTQVTVSS”, the “polyreactivity (PSR sort gate)” value is listed as “low polyreactivity”.

As for “QVQLVESGGGLVQAGGSLRLSCAASGFTLGFYAMGWYIQAPGKERELVAAINWRGGSTYYADSVKGRFTISRDNAKNTVYLQMNSLKPEDTAVYYCNAGFNTGGYGYWGQGTQVTVSS”, the “polyreactivity (PSR sort gate)” value is “high polyreactivity”.

Regarding “QVQLVESGGGLVQAGGSLRLSCAASGFTLGHYAMGWYRQAPGKERELVAVITSGSSTNYADSVKGRFTISRDNAKNTVYLQMNSLKPDDTAVYYCAAEDPYFKWLYYYWGQGTQVTVSS”, the “polyreactivity (PSR sort gate)” value is listed as “low polyreactivity”.

Turning to “QVQLVESGGGLVQAGGSLRLSCAASGFTLGSNVMGWYRQAPGKERELVAGISQSGGRTFYADSVKGRFTISRDNAKNTVYLQMNSLKPEDTAVYYCAARRYAVEGSKNYYWGQGTQVTVSS”, the “polyreactivity (PSR sort gate)” value is “low polyreactivity”.

Turning to “QVQLVESGGGLVQAGGSLRLSCAASGFTLGSNVMGWYRQAPGKERELVAGISQSGGRTFYADSVKGRFTISRDNAKNTVYLQMNSLKPEDTAVYYCNKGASPDDYDYWGQGTQVTVSS”, the “polyreactivity (PSR sort gate)” value was “low polyreactivity”.

In the case of “QVQLVESGGGLVQAGGSLRLSCAASGFTLGYYTMGWYRQAPGKERELVAAIRSNGGSTYYADSVKGRFTISRDNAKNTVYLQMNSLKPEDTAVYYCAARRWRYVGTRYDYWGQGTQVTVSS”, the “polyreactivity (PSR sort gate)” value is “high polyreactivity”.

In the case of “QVQLVESGGGLVQAGGSLRLSCAASGFTLIHYAMGWYRQAPGKERELVAGITTSGGSTYYADSVKGRFTISRDNAKNTVYLQMNSLKPEDTAVYYCAASSNTRGDYWGQGTQVTVSS”, the “polyreactivity (PSR sort gate)” value is “high polyreactivity”.

Regarding “QVQLVESGGGLVQAGGSLRLSCAASGFTLISYDMGWYRPSPGKERELVAGISSGDSTDYADSVKGRFTISRDNAKNTVYLQMNSLKPEDTAVYYCAATWYGYYSRYDFYYWGQGTQVTVSS”, the “polyreactivity (PSR sort gate)” value is given as “low polyreactivity”.

Take “QVQLVESGGGLVQAGGSLRLSCAASGFTLKSYAMGWYRQAPGKERELVASISRRGGSTYYADSVKGRFTISRDNAKNTVYLQMNSLKPEDTAVYYCNADYVRFPGNAYDYWGQGTQVTVSS”: the “polyreactivity (PSR sort gate)” value is “high polyreactivity”.

In the case of “QVQLVESGGGLVQAGGSLRLSCAASGFTLKYYAMGWYRQAPGKERELVAAITSSGGSTYYADSVKGRFTISRDNAKNTVYLQMNSLKPEDTAVYYCNAVTVYKHGSWGQGTQVTVSS”, the “polyreactivity (PSR sort gate)” value is on record as “high polyreactivity”.

Turning to “QVQLVESGGGLVQAGGSLRLSCAASGFTLLKNAMRGYRQAPGKERELVAAIRVSGGSTYYADSVKGRFTISRDNAKNSVYLQMNSLKPEDTAVYYCAAKYLRWPVSTMYYWGQGTQVTVSS”, the “polyreactivity (PSR sort gate)” value is reported as “high polyreactivity”.

For the sequence “QVQLVESGGGLVQAGGSLRLSCAASGFTLQQYTMGWYRQAPGKERELVAAISTSGVRTYYADSVKGRFTISRDNAKNTVYLQMNSLKPEDTAVYYCNAAWVYGIGWYSGYDYWGQGTQVTVSS”, the “polyreactivity (PSR sort gate)” value is listed as “high polyreactivity”.

Consider “QVQLVESGGGLVQAGGSLRLSCAASGFTLRLYVMGWYRQAPGKERELVAAITSSGGSTYYADSVKGRFTISRDIAKNTVYLQMNSLKPEDTAVYYCAAVNRKSQLYGYWGQGTQVTVSS”, for which the “polyreactivity (PSR sort gate)” value is on record as “high polyreactivity”.

With “QVQLVESGGGLVQAGGSLRLSCAASGFTLRRYAMGWYRLAPGKERELVATITSGGTTDYADSVKGRFTISRDNAKNTVYLQMNSLKPEDTAVYYCAAYRRGAYYYWGQGTQVTVSS”, the “polyreactivity (PSR sort gate)” value is “high polyreactivity”.

With “QVQLVESGGGLVQAGGSLRLSCAASGFTLSKYAKGWYRPAPGKERELVAAITGSGVRTYYADSVKGRFTISRDYAKNSVYLELNSLKPEDTAVYYCATGTKKGRYRDELDCWGHGTQVTVSS”, the “polyreactivity (PSR sort gate)” value is “high polyreactivity”.

Regarding “QVQLVESGGGLVQAGGSLRLSCAASGFTLSNNAMGWYRQAPGKERELVAGLTSGGDSTNYADSVKGRFTISRDNAKNTVYLQMNSLKREDTAVYDCAAQGGTNTPGVVESDYWGQGTQVTVSS”, the “polyreactivity (PSR sort gate)” value is reported as “low polyreactivity”.

As for “QVQLVESGGGLVQAGGSLRLSCAASGFTLSRNAMGWYRQAPGKERELVAAISYSGARTYYADSVKGRFTISRDNAKNTVYLQMNRLKPEDTAVYYCAKVVPYPDYDYWGQGTQVTVSS”, the “polyreactivity (PSR sort gate)” value is listed as “high polyreactivity”.

On to “QVQLVESGGGLVQAGGSLRLSCAASGFTLSYNVMGWYRQAPGKERELVAAISDSGGSTYYADSVKGRFTISRDNAKNTVYLQMNSLKPEDTAVYYCAAYYPTRYQYGTIWVAYNYWGQGTQVTVSS”, for which the “polyreactivity (PSR sort gate)” value is “low polyreactivity”.

In the case of “QVQLVESGGGLVQAGGSLRLSCAASGFTLTRKAMGWYRQAPGKERELVAAISRSGGSTYYADSVKGRFTISRDNAKNTVYLQMNSLKPEDTAVYYCNAGYGYGYPKYDYWGQGTQVTVSS”, the “polyreactivity (PSR sort gate)” value was “high polyreactivity”.

As to “QVQLVESGGGLVQAGGSLRLSCAASGFTLVNNAMGWYRQAPGKERELVAAISKRAGRTYYADSVKGRFTISRDNAKNTVYLQMNSLKPEDTAVYYCNAGKRVEYDYWGQGTQVTVSS”, the “polyreactivity (PSR sort gate)” value was “high polyreactivity”.

As to “QVQLVESGGGLVQAGGSLRLSCAASGFTLWLNAMGWYRQAPGKERELVAAITTSDDGTYYADSVKGRFTISRDTAKNTVYLQMNSLKPEDTAVYYCAADYYSVLYDYWGQGTQVTVSS”, the “polyreactivity (PSR sort gate)” value is on record as “low polyreactivity”.

Consider “QVQLVESGGGLVQAGGSLRLSCAASGFTLYVNAMGWYRHAPGKERELVAAISRGTTTYYADSVKGRFTISRDNAKNTVYLQMNSLKPEDTAVYYCAGETGHPYEEYDYWGQGTQVTVSS”, for which the “polyreactivity (PSR sort gate)” value is “high polyreactivity”.

With “QVQLVESGGGLVQAGGSLRLSCAASGFTLYYNAMGWYRQAPGKERELVAAINIGDSTNYADSVKGRFTISRDNAKNTVYLQMNSLKPEDTAVYYCAAVLLPYGVFYTVAINVDYWGQGTQVTVSS”, the “polyreactivity (PSR sort gate)” value is on record as “low polyreactivity”.

With “QVQLVESGGGLVQAGGSLRLSCAASGFTLYYYAMGGYRQAPGKERELVAAISYSGGTTYYADSVKGRFTISRDNAKNTVYLLMYSLKPEDTAVYYCAAGFYSYSWYVKLAYGYWGQGIQVTVSS”, the “polyreactivity (PSR sort gate)” value is given as “low polyreactivity”.

Turning to “QVQLVESGGGLVQAGGSLRLSCAASGFTLYYYTMGWYRQAPGKERELVAAITSGGDTYYADSVKGRFTISRDNAKNTVYLQMNSLKPEDTAVYYCAAVDDDYSIVWYDYWGQGTQVTVSS”, the “polyreactivity (PSR sort gate)” value is listed as “low polyreactivity”.

As to “QVQLVESGGGLVQAGGSLRLSCAASGFTQEDYTMGWYRQAPGQERELVARITSGGSTNYADSVKGRFTISRDNGKNTDYLQMNSLKADETAVYYCNARYAWINMDYWGQGTQVTVSS”, the “polyreactivity (PSR sort gate)” value was “low polyreactivity”.

Consider “QVQLVESGGGLVQAGGSLRLSCAASGFTSAPYAMGWNRQAPGKERELVAAISSGDTTSYADSVKGRFTISRDNEKNTVYFQMNSLKPEDTAVYYCAAVYFNVIESYKTAGYDYWGQGTQVTVSS”, for which the “polyreactivity (PSR sort gate)” value is reported as “low polyreactivity”.
